Results taken from US20150074844A1 (PURDUE RESEARCH FOUNDATION, published 2015).

B2: PYL13 fused to the GAL4-activating domain (AD) (other, not shown: large carriers)
chain: MESSKQKRCRSSVVETIEAPLPLVWSILRSFDKPQAYQRFVKSCTMRSGGGGGKGGEGKGSVRDVTLVSGFPADFSTERLEELDDESHVMVVSIIGGNHRLVNYKSKTKVVASPEDMAKKTVVVESYVVDVPEGTSEEDTIFFVDNIIRYNLTSLAKLTKKMMK
notes: also called AD-PYL13

Experiments:
[1] = target: ABI1 without tag (purified recombinant) (Arabidopsis) (UniProt P49597); experiment: cell-based or functional assay
PP2CA-HA = target: T1, PP2CA-HA (Arabidopsis, UniProt P49598 1-399); experiment: co-IP from protoplasts with anti-HA agarose, western blot; with or without 10 µM ABA
T1 construct: also called hemagglutinin (HA)-tagged PP2CA; not shown: HA tag
T1 sequence (looked up): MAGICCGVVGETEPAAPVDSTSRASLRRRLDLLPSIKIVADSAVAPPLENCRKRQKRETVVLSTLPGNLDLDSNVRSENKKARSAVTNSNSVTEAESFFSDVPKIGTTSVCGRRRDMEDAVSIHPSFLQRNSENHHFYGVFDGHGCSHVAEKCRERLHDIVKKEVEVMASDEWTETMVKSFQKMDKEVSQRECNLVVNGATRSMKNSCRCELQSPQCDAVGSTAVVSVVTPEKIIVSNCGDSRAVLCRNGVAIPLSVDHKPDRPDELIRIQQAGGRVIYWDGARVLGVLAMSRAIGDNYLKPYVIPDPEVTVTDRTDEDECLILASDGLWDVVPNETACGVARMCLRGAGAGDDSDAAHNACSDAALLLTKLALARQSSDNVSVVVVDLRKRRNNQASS
Text: Coimmunoprecipitation (co-IP) assays using ABI1-HA and PP2CA-HA as baits captured c-myc-PYL13 in an ABA-independent manner (FIG. 3C). The binding of PP2CA with PYL13 again appeared much stronger than that of ABI1 with PYL13. […] Total soluble proteins (input) were extracted from Arabidopsis protoplasts that transiently expressed the indicated constructs. PP2C-interacting proteins were immunoprecipitated with anti-HA mouse antibodies and detected with anti-HA and anti-cMYC rabbit antibodies.
PP2CA-HA, ABI1-HA, and MYC-PYL13 plasmids (20 μg each) were transiently expressed in wild-type (Col-0) protoplasts. After transfection, protoplasts were incubated in WI buffer under light at room temperature for 16.5 h. Protoplasts were treated with 10 μM ABA for 1.5 h before they were harvested, frozen in liquid N2, and stored at −80° C. The frozen protoplasts were resuspended in 1 ml of immunoprecipitation (IP) buffer containing 50 mM Tris-HCl, pH 7.4, 150 mM NaCl, 1 mM EDTA, 0.1% (v/v) Triton X-100, and 1× protease inhibitor cocktail (SIGMA) with or without 10 μM ABA and then centrifuged at 21000 g for 30 min at 4° C. The supernatant was used as input and was incubated for 4 h at 4° C. with 30 μl of monoclonal anti-HA-agarose antibody produced in mouse (SIGMA, A2095). […]

[2] = target: T2, PYL6 fused to the GAL4-DNA binding domain (BD) (Arabidopsis thaliana, UniProt Q8S8E3 1-215); experiment: yeast two-hybrid, growth on media lacking His and His/Ade, with and without ABA
T2 construct: Yeast two-hybrid construct
T2 sequence: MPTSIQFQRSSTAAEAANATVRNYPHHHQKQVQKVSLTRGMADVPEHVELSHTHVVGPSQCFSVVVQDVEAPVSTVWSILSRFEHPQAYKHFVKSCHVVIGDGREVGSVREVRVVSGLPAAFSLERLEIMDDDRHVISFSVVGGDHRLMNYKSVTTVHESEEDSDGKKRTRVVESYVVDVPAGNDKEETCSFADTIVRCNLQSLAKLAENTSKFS
Protocol: (§1) To confirm the interaction between PYL13 and PYL2/PYL9 and to determine whether PYL13 may bind with other PYLs, the interaction of PYL13 with PYLs was examined in yeast two-hybrid assays, as shown in FIG. 5. In this experiment, PYL13 interacted with PYR1, PYL1-4, PYL6, and PYL11-12 in an ABA-independent manner (FIG. 5A). PYL13 fused to the GAL4-activating domain (AD) was used as prey, and PYLs fused to the GAL4-DNA binding domain (BD) were used as baits. Interaction was determined by growth assay on media lacking His and His/Ade in the presence and absence of ABA. Dilutions (10⁻¹, 10⁻², and 10⁻³) of saturated cultures were spotted onto the plates, which were photographed after five days. […] Without wishing to be bound by theory, the lack of interaction between […] and PYL9 may be caused by the cellular differences between yeast and Arabidopsis or because of indirect interactions between the two proteins in Arabidopsis.

[3] = target: T3, PYL4 fused to the GAL4-DNA binding domain (BD) (Arabidopsis thaliana, UniProt O80920 1-207); experiment: as above
T3 construct: Yeast two-hybrid construct
T3 sequence: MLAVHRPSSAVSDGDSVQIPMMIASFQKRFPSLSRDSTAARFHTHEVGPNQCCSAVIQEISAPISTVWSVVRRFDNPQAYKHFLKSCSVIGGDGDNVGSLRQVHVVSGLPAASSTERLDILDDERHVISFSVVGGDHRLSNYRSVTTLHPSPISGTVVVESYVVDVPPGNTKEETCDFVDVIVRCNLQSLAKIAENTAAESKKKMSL
Protocol: as §1

[4] = target: T4, PYR1 fused to the GAL4-DNA binding domain (BD) (Arabidopsis thaliana, UniProt O49686 1-191); experiment: as above
T4 construct: Yeast two-hybrid construct
T4 sequence: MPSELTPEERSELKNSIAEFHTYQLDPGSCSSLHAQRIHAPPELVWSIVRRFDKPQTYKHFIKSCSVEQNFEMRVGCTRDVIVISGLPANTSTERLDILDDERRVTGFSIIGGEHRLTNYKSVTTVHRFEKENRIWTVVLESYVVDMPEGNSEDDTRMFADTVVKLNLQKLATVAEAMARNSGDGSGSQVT
Protocol: as §1

[5] = target: T5, PYL3 fused to the GAL4-DNA binding domain (BD) (Arabidopsis thaliana, UniProt Q9SSM7 1-209); experiment: as above
T5 construct: Yeast two-hybrid construct
T5 sequence: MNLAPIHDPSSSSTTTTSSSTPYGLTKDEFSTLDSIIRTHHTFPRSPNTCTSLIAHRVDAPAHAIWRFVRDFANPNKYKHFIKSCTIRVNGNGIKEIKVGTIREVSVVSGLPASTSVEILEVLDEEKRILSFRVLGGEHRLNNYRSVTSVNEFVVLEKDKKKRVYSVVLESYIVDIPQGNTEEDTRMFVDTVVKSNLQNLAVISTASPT
Protocol: as §1

[6] = target: B2; experiment: as above
Protocol: as §1

PYL13-cLUC = target: T6, PYL13-cLUC (Arabidopsis thaliana, UniProt Q9SN51 1-164); experiment: firefly luciferase complementation in protoplasts (stronger group)
T6 construct: LUC complementation assay in protoplasts; also called PYL13 fused to the C-terminal domain of LUC; not shown: C-terminal domain of firefly luciferase
T6 sequence: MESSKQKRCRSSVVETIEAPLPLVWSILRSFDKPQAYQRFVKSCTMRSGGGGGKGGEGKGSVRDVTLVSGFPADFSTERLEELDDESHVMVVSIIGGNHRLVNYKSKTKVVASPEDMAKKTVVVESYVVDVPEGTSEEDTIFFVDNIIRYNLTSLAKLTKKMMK
Protocol: To further characterize the interactions between PYL13 and PYLs in vivo, their interactions in protoplasts were examined by the firefly luciferase (LUC) complementation assay. PYL13 was fused to the C-terminal domain of LUC (PYL13-cLUC), and PYLs were fused to the N-terminal domain of LUC (PYLs-nLUC), and co-expressed in protoplasts. After transfection, protoplasts were incubated overnight under light at room temperature, and the LUC activities in living protoplasts were measured. Error bars indicate s.e.m. (n=6). […] PYL13 binds more strongly to PYR1, PYL1-5, PYL7, and PYL10-11 than to PYL6, PYL8-9, or PYL13 (FIG. 5B).

ABI1 without tag (purified recombinant) (Arabidopsis), sequence (P49597 whole entry): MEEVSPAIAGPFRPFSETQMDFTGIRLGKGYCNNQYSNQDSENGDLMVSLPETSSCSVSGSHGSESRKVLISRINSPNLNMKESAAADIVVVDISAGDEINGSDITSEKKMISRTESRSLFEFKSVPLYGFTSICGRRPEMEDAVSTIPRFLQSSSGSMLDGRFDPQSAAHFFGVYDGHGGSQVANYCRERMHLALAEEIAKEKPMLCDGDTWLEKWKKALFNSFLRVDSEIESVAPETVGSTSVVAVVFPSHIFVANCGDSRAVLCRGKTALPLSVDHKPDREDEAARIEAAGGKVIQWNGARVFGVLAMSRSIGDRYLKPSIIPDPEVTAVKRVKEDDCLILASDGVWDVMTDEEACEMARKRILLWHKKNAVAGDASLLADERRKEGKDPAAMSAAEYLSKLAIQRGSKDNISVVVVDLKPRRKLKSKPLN

PYL13-PYL2 protein complex (from UniProt Q9SN51 1-164; O80992 1-190)
ABI1 phosphatase activity (pNPP, A405, % of ABI1 without ABA and PYLs), 10 µM ABA [1]: 78%

PYL13-PYL1 protein complex (from UniProt Q9SN51 1-164; Q8VZS8 1-221)
ABI1 phosphatase activity (pNPP, A405, % of ABI1 without ABA and PYLs), 10 µM ABA [1]: 88%

PYL2 (purified recombinant protein, phosphatase assay) (from UniProt O80992 1-190) (receptor)
ABI1 phosphatase activity (pNPP, A405, % of ABI1 without ABA and PYLs), 10 µM ABA, 0.3 µM each [1]: 50%

PYL1 (purified recombinant protein, phosphatase assay) (from UniProt Q8VZS8 1-221) (receptor)
ABI1 phosphatase activity (pNPP, A405, % of ABI1 without ABA and PYLs), 10 µM ABA, 0.3 µM each [1]: 67%

B1: c-myc-tagged PYL13 (other)
chain: MESSKQKRCRSSVVETIEAPLPLVWSILRSFDKPQAYQRFVKSCTMRSGGGGGKGGEGKGSVRDVTLVSGFPADFSTERLEELDDESHVMVVSIIGGNHRLVNYKSKTKVVASPEDMAKKTVVVESYVVDVPEGTSEEDTIFFVDNIIRYNLTSLAKLTKKMMK
notes: Transiently expressed in Col-0 protoplasts for co-IP; also called c-myc-PYL13; MYC-PYL13; not shown: c-myc tag
binding result (PP2CA-HA): binds

B2
binding result [2]: binds | binding result [3]: binds | binding result [4]: binds | binding result [5]: binds

B3: PYL11 fused to the GAL4-DNA binding domain (BD) (receptor, not shown: small tags and cut ends)
chain: METSQKYHTCGSTLVQTIDAPLSLVWSILRRFDNPQAYKQFVKTCNLSSGDGGEGSVREVTVVSGLPAEFSRERLDELDDESHVMMISIIGGDHRLVNYRSKTMAFVAADTEEKTVVVESYVVDVPEGNSEEETTSFADTIVGFNLKSLAKLSERVAHLKL
notes: Yeast two-hybrid construct
binding result [6]: binds

B4: PYL12 fused to the GAL4-DNA binding domain (BD) (receptor, not shown: large carriers; small tags and cut ends)
chain: MKTSQEQHVCGSTVVQTINAPLPLVWSILRRFDNPKTFKHFVKTCKLRSGDGGEGSVREVTVVSDLPASFSLERLDELDDESHVMVISIIGGDHRLVNYQSKTTVFVAAEEEKTVVVESYVVDVPEGNTEEETTLFADTIVGCNLRSLAKLSEKMMELT
notes: Yeast two-hybrid construct
binding result [6]: binds

B5: PYL11-nLUC (receptor)
chain: METSQKYHTCGSTLVQTIDAPLSLVWSILRRFDNPQAYKQFVKTCNLSSGDGGEGSVREVTVVSGLPAEFSRERLDELDDESHVMMISIIGGDHRLVNYRSKTMAFVAADTEEKTVVVESYVVDVPEGNSEEETTSFADTIVGFNLKSLAKLSERVAHLKL
notes: LUC complementation assay in protoplasts; also called PYLs-nLUC; not shown: N-terminal domain of firefly luciferase
binding result (PYL13-cLUC): binds
